For 16 molecules, Kd, koff and kon results are on record in US20240327530A1 (ICHNOS SCIENCES, published 2024).

The target in test [1] is T1, Recombinant cynomolgus monkey IL-1RAP-ECD(S21-E359)-avi-his protein (cynomolgus monkey, UniProt P59822 21-359 (rhesus entry)).
T1 construct: also called cyno IL-1RAP-ECD-Avi-His; recombinant cynomolgus monkey IL-1RAP-avi-his protein
T1 sequence: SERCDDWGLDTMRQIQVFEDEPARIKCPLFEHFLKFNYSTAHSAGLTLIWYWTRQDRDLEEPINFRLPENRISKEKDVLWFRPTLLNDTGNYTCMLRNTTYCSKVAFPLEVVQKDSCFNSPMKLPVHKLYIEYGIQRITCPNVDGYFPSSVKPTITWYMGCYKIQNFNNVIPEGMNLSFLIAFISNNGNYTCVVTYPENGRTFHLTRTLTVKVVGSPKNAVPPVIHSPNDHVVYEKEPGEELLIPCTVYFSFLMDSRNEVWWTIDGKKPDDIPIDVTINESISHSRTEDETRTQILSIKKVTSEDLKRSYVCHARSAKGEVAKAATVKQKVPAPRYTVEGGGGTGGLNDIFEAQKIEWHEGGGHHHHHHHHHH
Description: SPR, IgG1 LALA captured by anti-human Fc, cyno IL-1RAP-avi-his as analyte, 1:1 fit. As for the experimental part:
(§1) Surface plasmon resonance (SPR) was used to measure the binding affinities of the human IgG1 LALA molecules for human and cynomolgus monkey IL-1RAP. Affinities were measured on a BIACORE™ T200 instrument (BIACORE™, GE […]®) at 25° C. and analyzed with the BIACORE™ T200 Evaluation Software (v3.1). Measurements were performed on Series S CM5 sensor chips (BIACORE™ T200, BIACORE™, GE […]®, catalog no. BR100530) coupled with anti-human IgG Fc (BIACORE™, GE […]®, catalog no. BR100839) using a commercial amine coupling kit (BIACORE™, GE […]®, catalog no. BR100050). SPR measurements were performed with recombinant human IL-1RAP-avi-his protein produced in house (SEQ ID NO. 1) or recombinant cynomolgus monkey IL-1RAP-avi-his protein produced in house (SEQ ID NO. 2). The affinities to human and cynomolgus monkey IL-1RAP were assessed by immobilizing anti-IL-1RAP IgG1 LALA molecules and using IL-1RAP proteins as analyte. Around 150 RU of human IgG1 LALA were captured on fc2 of a Series S CM5 sensor chip coupled with anti-human IgG Fc. Recombinant human IL-1RAP-avi-his protein or recombinant cynomolgus monkey IL-1RAP-avi-his protein was injected in multi cycle kinetic at different concentrations ranging from 0.14 to 100 nM, in HBS-EP+ buffer (BIACORE™, GE […]®, catalog no. BR100669) at a flow rate of 30 μl/min for 3 min on fc1 and fc2 (fc1 being used as reference). Dissociation was monitored for 12 min. After each cycle, the surface was regenerated with 60 μl of regeneration solution provided with anti-human IgG Fc capture kit (BIACORE™, GE […]®, catalog no. BR100839). Experimental data were processed using the 1:1 Langmuir kinetic fitting model. Measurements included zero-concentration samples for referencing. Chi², U- and residual values were used to evaluate the quality of a fit between the experimental data and individual binding models.
Background: In SPR one partner is held on a chip, and binding of the other changes the refractive index at the surface.

The target in test [2] is T2, Recombinant human IL-1RAP-ECD(S21-E359)-avi-his protein (human, UniProt Q9NPH3 21-359).
T2 construct: Biotinylated where loaded on streptavidin; also called human IL-1RAP-ECD-Avi-His; recombinant human IL-1RAP-avi-his protein
T2 sequence: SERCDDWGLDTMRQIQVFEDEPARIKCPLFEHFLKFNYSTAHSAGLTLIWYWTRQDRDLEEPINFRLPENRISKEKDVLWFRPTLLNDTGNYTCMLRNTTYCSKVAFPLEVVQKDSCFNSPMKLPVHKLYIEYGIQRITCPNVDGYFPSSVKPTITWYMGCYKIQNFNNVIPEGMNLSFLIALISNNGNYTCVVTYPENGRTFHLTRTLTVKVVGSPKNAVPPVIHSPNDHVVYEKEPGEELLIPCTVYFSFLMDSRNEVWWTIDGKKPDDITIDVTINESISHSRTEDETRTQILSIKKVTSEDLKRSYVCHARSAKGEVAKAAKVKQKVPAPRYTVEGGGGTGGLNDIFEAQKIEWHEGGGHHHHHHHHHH
In words: SPR, IgG1 LALA captured by anti-human Fc, human IL-1RAP-avi-his as analyte, 1:1 fit. The protocol: as §1

In test [3] the target is T3, Recombinant human IL-1RAP Fc fusion protein (Acrobiosystems, catalog no. ILP-H5256) (human, UniProt Q9NPH3 21-359, limits assumed).
T3 construct: Bought; not shown: Fc part of the bought fusion protein
T3 sequence: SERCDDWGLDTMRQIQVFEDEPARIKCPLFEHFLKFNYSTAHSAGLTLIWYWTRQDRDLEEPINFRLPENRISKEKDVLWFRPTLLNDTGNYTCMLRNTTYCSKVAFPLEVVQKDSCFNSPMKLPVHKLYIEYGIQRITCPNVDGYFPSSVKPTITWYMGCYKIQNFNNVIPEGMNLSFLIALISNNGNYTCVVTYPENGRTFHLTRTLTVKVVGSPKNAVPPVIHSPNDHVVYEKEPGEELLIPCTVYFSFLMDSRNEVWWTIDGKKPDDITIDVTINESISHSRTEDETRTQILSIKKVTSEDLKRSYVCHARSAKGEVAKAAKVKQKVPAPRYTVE
In words: SPR, human IL-1RAP-Fc captured, Fab as analyte (0.08 to 50 nM). The protocol: BR100669) at a flow rate of 30 μl/min for 3 min on fc1 and fc2 (fc1 being used as reference). Dissociation was monitored for 5 min. After each cycle, the surface was regenerated with 60 μl of regeneration solution provided with anti-human IgG Fc capture kit (BIACORE™, GE […]®, catalog no. BR100839) or BiotinCAPture kit (BIACORE™, GE […]®, catalog no. 28920234) respectively. Experimental data were processed using the 1:1 Langmuir kinetic fitting model. Measurements included zero-concentration samples for referencing. Chi², U- and residual values were used to evaluate the quality of a fit between the experimental data and individual binding models. […]

B1: Anti-IL-1RAP-C8-recC IgG1 LALA (antibody, V domains shown)
VH: QVQLVQSGAEVKKPGSSVKVSCKASGSPAEPYAIQWVRQAPGQGLEWMGYIIPSLGGYDYAQKFQGRVTITADESTSTAYMELSSLRSEDTAVYYCARGQTLYDSGRQFDIWGQGTLVTVSS
VL: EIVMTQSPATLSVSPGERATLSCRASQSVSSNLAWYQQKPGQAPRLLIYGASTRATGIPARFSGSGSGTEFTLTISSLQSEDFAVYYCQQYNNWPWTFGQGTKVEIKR
notes: Human IgG1 with L234A/L235A (EU); whether it is the full heavy chain or only VH is not clear; also called ISB 880-C8-recC
Usually Kd stands for a measure of binding affinity in units of concentration. Broadly, the koff is the rate constant with which the complex falls apart. For orientation: kon means the rate constant with which the complex forms. In the case of B1, in test [1], the Kd worked out at 0.276 nM, the koff was 0.000236 s⁻¹ and the kon came out at 854000 M⁻¹ s⁻¹. In test [2], the Kd was determined as 0.237 nM, the koff was found to be 0.000199 s⁻¹ and the kon worked out at 840000 M⁻¹ s⁻¹.

B2: Anti-IL-1RAP-C8-recC-Fab (Fab, V domains shown)
VH: QVQLVQSGAEVKKPGSSVKVSCKASGSPAEPYAIQWVRQAPGQGLEWMGYIIPSLGGYDYAQKFQGRVTITADESTSTAYMELSSLRSEDTAVYYCARGQTLYDSGRQFDIWGQGTLVTVSS
VL: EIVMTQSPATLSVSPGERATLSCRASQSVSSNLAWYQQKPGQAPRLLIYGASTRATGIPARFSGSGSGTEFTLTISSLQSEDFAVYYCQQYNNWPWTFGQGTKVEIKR
notes: also called Fab clone anti-IL-1RAP-C8-RecC
For B2, the Kd in test [3] came out at 0.038 nM.

B3: Anti-IL-1RAP-C8-H2B-B5-Fab (Fab, V domains shown)
VH: QVQLVQSGAEVKKPGSSVKVSCKASGGQFSEYAIQWVRQAPGQGLEWMGYIIPTVGGFDYAQKFQGRVTITADESTSTAYMELSSLRSEDTAVYYCARGQTLYDSGRQFDIWGQGTLVTVSS
VL: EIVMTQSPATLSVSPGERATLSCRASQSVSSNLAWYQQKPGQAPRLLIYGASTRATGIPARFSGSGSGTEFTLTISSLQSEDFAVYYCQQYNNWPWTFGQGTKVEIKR
As for B3, the Kd in test [3] came out at 1.37 nM.

B4: Anti-IL-1RAP-C8-H1B-B8-Fab (Fab, V domains shown)
VH: QVQLVQSGAEVKKPGSSVKVSCKASGSPAEPYAIQWVRQAPGQGLEWMGYIIPLHGQVDYAQKFQGRVTITADESTSTAYMELSSLRSEDTAVYYCARGQTLYDSGRQFDIWGQGTLVTVSS
VL: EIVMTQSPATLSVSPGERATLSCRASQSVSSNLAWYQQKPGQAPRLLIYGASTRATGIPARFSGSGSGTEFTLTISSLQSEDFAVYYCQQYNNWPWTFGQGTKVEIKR
notes: also called ISB 880-C8-H1B-B8
For B4, the Kd in test [3] is 0.373 nM.

B5: Anti-IL-1RAP-C8-H1B-F3-Fab (Fab, V domains shown)
VH: QVQLVQSGAEVKKPGSSVKVSCKASGGPHTAHAIQWVRQAPGQGLEWMGYIIPLHGQVDYAQKFQGRVTITADESTSTAYMELSSLRSEDTAVYYCARGQTLYDSGRQFDIWGQGTLVTVSS
VL: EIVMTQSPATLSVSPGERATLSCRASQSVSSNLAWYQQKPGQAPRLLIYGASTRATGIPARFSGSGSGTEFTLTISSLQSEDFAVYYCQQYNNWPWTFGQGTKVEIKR
Turning to B5, the Kd in test [3] worked out at 0.427 nM.

B6: Anti-IL-1RAP-C8-H1B-E7-Fab (Fab, V domains shown)
VH: QVQLVQSGAEVKKPGSSVKVSCKASGSKHGNYAIQWVRQAPGQGLEWMGYIIPLHGQVDYAQKFQGRVTITADESTSTAYMELSSLRSEDTAVYYCARGQTLYDSGRQFDIWGQGTLVTVSS
VL: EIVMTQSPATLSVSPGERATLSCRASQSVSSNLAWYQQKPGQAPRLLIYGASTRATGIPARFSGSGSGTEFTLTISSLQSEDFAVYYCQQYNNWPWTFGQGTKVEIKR
For the molecule B6, the Kd in test [3] was found to be 0.831 nM.

B7: Anti-IL-1RAP-C8-H1B-H10-Fab (Fab, V domains shown)
VH: QVQLVQSGAEVKKPGSSVKVSCKASGSTWEPYAIQWVRQAPGQGLEWMGYIIPLHGQVDYAQKFQGRVTITADESTSTAYMELSSLRSEDTAVYYCARGQTLYDSGRQFDIWGQGTLVTVSS
VL: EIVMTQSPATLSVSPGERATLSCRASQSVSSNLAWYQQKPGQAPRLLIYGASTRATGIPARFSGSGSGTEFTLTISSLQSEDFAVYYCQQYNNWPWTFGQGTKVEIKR
As to B7, in test [3], the Kd amounted to 0.209 nM.

B8: Anti-IL-1RAP-C8-H2B-C10-Fab (Fab, V domains shown)
VH: QVQLVQSGAEVKKPGSSVKVSCKASGGQFSEYAIQWVRQAPGQGLEWMGYIIPSLGGYDYAQKFQGRVTITADESTSTAYMELSSLRSEDTAVYYCARGQTLYDSGRQFDIWGQGTLVTVSS
VL: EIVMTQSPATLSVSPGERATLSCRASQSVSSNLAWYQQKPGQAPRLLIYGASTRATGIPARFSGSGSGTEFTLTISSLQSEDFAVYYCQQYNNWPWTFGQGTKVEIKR
notes: also called ISB 880-C8-H2B-C10
For the molecule B8, in test [3], the Kd was found to be 0.589 nM.

B9: Anti-IL-1RAP-C8-H1B-G10-Fab (Fab, V domains shown)
VH: QVQLVQSGAEVKKPGSSVKVSCKASGGPRRAYAIQWVRQAPGQGLEWMGYIIPLHGQVDYAQKFQGRVTITADESTSTAYMELSSLRSEDTAVYYCARGQTLYDSGRQFDIWGQGTLVTVSS
VL: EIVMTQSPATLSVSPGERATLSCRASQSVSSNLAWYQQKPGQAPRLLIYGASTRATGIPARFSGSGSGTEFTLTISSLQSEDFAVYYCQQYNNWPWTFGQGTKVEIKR
As for B9, the Kd in test [3] came to 0.313 nM.

B10: Anti-IL-1RAP-C8-RecC-AS-IgG1LALA (antibody, V domains shown)
VH: QVQLVQSGAEVKKPGSSVKVSCKASGSPAEPYAIQWVRQAPGQGLEWMGYIIPSLGGYDYAQKFQGRVTITADESTSTAYMELSSLRSEDTAVYYCARGQTLYASGRQFDIWGQGTLVTVSS
VL: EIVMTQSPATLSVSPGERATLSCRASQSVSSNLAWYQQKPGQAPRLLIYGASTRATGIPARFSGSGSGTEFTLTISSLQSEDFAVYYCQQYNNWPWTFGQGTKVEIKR
notes: Human IgG1 LALA; D100/S100a (Kabat) of RecC replaced by AS; also called ISB 880-C8-recC-AS
Consider B10, for which, in test [1], the Kd was found to be 0.254 nM, the koff is 0.00016 s⁻¹ and the kon is 628000 M⁻¹ s⁻¹. For the same molecule, in test [2], the Kd turned out to be 0.287 nM, the koff was found to be 0.000161 s⁻¹ and the kon was 561000 M⁻¹ s⁻¹.

B11: Anti-IL-1RAP-C8-recB-Fab (Fab, V domains shown)
VH: QVQLVQSGAEVKKPGSSVKVSCKASGGPRRAYAIQWVRQAPGQGLEWMGYIIPSLGGYDYAQKFQGRVTITADESTSTAYMELSSLRSEDTAVYYCARGQTLYDSGRQFDIWGQGTLVTVSS
VL: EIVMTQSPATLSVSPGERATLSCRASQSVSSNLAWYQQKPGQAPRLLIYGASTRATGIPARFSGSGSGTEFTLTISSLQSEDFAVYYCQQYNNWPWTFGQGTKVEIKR
In the case of B11, the Kd in test [3] came to 0.052 nM.

B12: Anti-IL-1RAP-C8-recA-Fab (Fab, V domains shown)
VH: QVQLVQSGAEVKKPGSSVKVSCKASGSTWEPYAIQWVRQAPGQGLEWMGYIIPSLGGYDYAQKFQGRVTITADESTSTAYMELSSLRSEDTAVYYCARGQTLYDSGRQFDIWGQGTLVTVSS
VL: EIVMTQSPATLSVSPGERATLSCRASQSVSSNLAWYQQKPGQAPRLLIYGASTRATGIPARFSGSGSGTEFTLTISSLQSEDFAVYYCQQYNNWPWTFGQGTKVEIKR
For the molecule B12, the Kd in test [3] was found to be 0.051 nM.

B13: Anti-IL-1RAP-C8-H1B-B10-Fab (Fab, V domains shown)
VH: QVQLVQSGAEVKKPGSSVKVSCKASGVTHTSYAIQWVRQAPGQGLEWMGYIIPLHGQVDYAQKFQGRVTITADESTSTAYMELSSLRSEDTAVYYCARGQTLYDSGRQFDIWGQGTLVTVSS
VL: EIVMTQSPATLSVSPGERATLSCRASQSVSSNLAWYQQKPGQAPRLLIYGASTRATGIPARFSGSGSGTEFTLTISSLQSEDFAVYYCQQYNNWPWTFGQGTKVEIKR
With B13, the Kd in test [3] worked out at 0.553 nM.

B14: Anti-IL-1RAP-C8-RecC-AA-IgG1LALA (antibody, V domains shown)
VH: QVQLVQSGAEVKKPGSSVKVSCKASGSPAEPYAIQWVRQAPGQGLEWMGYIIPSLGGYDYAQKFQGRVTITADESTSTAYMELSSLRSEDTAVYYCARGQTLYAAGRQFDIWGQGTLVTVSS
VL: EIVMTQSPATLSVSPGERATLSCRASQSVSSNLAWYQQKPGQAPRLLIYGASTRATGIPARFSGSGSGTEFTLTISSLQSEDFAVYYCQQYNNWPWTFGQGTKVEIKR
notes: Human IgG1 LALA; also called ISB 880-C8-recC-AA
For B14, in test [1], the Kd amounted to 0.24 nM, the koff was found to be 0.000187 s⁻¹ and the kon is 777000 M⁻¹ s⁻¹. In test [2], the Kd worked out at 0.267 nM, the koff was 0.000169 s⁻¹ and the kon turned out to be 634000 M⁻¹ s⁻¹.

B15: Anti-IL-1RAP-C8-RecC-DA-IgG1LALA (antibody, V domains shown)
VH: QVQLVQSGAEVKKPGSSVKVSCKASGSPAEPYAIQWVRQAPGQGLEWMGYIIPSLGGYDYAQKFQGRVTITADESTSTAYMELSSLRSEDTAVYYCARGQTLYDAGRQFDIWGQGTLVTVSS
VL: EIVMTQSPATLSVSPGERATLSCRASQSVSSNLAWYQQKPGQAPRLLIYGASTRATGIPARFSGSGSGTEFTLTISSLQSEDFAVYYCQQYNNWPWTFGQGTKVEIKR
notes: Human IgG1 LALA; D100/S100a (Kabat) of RecC replaced by DA; also called ISB 880-C8-recC-DA
Turning to B15, in test [1], the Kd turned out to be 0.145 nM, the koff is 0.00019 s⁻¹ and the on-rate (kon) worked out at 1.31e+06 M⁻¹ s⁻¹. For the same molecule, in test [2], the Kd came out at 0.14 nM, the koff turned out to be 0.000162 s⁻¹ and the kon was 1.16e+06 M⁻¹ s⁻¹.

B16: Anti-IL-1RAP-C8-H1B-D8-Fab (Fab, V domains shown)
VH: QVQLVQSGAEVKKPGSSVKVSCKASGPSNPVYAIQWVRQAPGQGLEWMGYIIPLHGQVDYAQKFQGRVTITADESTSTAYMELSSLRSEDTAVYYCARGQTLYDSGRQFDIWGQGTLVTVSS
VL: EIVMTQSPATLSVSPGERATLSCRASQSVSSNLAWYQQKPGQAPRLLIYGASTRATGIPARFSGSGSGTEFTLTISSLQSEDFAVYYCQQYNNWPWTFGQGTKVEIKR
Regarding B16, in test [3], the Kd is 0.476 nM.
